Measurements published in the supplement of paper PMC10567573.

B1: FBXO3 (parent)
chain: HDPLWRRHCKKYWLISEEEKTQKN
B2: SPATS1 (parent)
chain: YPEQSKGFHKAGSMLPPVNFSIVP

Variants of: B1
Assay: protein stability index of a GFP-peptide fusion (GPS, HEK-293T) (PSI 1-6); higher = more stable
Details: c terminus: a fixed tail appended
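Note: lentivirally expressed fusions sorted by FACS into six bins by GFP to DsRed ratio, PSI derived from sequencing read proportions per bin multiplied by bin number.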

Variant	protein stability index
K11V	2.28
K11W	2.41
K11Y	2.31
Y12A	3.44
Y12C	3.4
Y12D	4.63
Y12E	4.48
Y12F	3.22
Y12G	3.74
Y12H	3.72
Y12I	3.48
Y12K	3.89
Y12L	3.74
Y12M	2.98
Y12N	3.58
Y12P	3.78
Y12Q	3.61
Y12R	3.59
Y12S	3.91
Y12T	4.13
Y12V	3.83
Y12W	3.12
W13A	4.04
W13C	3.67
W13D	4.38

Variant	protein stability index
W13E	4.52
W13F	3.85
W13G	4.26
W13H	4.21
W13I	3.91
W13K	4.65
W13L	3.84
W13M	3.76
W13N	4.37
W13P	4.21
W13Q	4.28
W13R	3.46
W13S	3.97
W13T	4.22
W13V	3.85
W13Y	3.19
L14A	3.57
L14C	3.3
L14D	3.98
L14E	3.77
L14F	3
L14G	3.79
L14H	3.49
L14I	2.99
L14K	3.53

Variant	protein stability index
L14M	3.27
L14N	4.4
L14P	4.11
L14Q	3.58
L14R	3.3
L14S	3.88
L14T	3.65
L14V	3.27
L14W	3.31
L14Y	3.56
I15A	3.38
I15C	3.73
I15D	3.69
I15E	3.88
I15F	3.38
I15G	3.69
I15H	2.72
I15K	3.47
I15L	3.44
I15M	3.16
I15N	3.67
I15P	3.68
I15Q	3.68
I15R	4.68
I15S	3.62

Variant	protein stability index
I15T	3.61
I15V	3.85
I15W	3.19
I15Y	3.21
S16A	3.21
S16C	2.99
S16D	3.84
S16E	3.8
S16F	2.46
S16G	2.95
S16H	3.09
S16I	2.4
S16K	3.21
S16L	2.72
S16M	2.99
S16N	3.5
S16P	3.77
S16Q	2.99
S16R	3.27
S16T	3.51
S16V	2.73
S16W	2.52
S16Y	2.72
E17A	3.41
E17C	2.64

Variant	protein stability index
E17D	3.48
E17F	2.56
E17G	3
E17H	3.05
E17I	2.31
E17K	3.31
E17L	2.47
E17M	2.22
E17N	2.98
E17P	3.52
E17Q	2.98
E17R	3
E17S	3.26
E17T	3.1
E17V	2.23
E17W	2.37
E17Y	2.62
E18A	2.55
E18C	2.95
E18D	3.2
E18F	2.55
E18G	2.75
E18H	3.3
E18I	2.46
E18K	3.04

Variant	protein stability index
E18L	2.46
E18M	2.28
E18N	3.15
E18P	2.91
E18Q	2.94
E18R	2.81
E18S	3.01
E18T	2.89
E18V	2.5
E18W	2.38
E18Y	2.31
E19A	2.83
E19C	2.84
E19D	3.17
E19F	2.04
E19G	3.05
E19H	2.91
E19I	2.38
E19K	2.92
E19L	2.35
E19M	2.66
E19N	2.88
E19P	2.98
E19Q	3.26
E19R	2.94

Variant	protein stability index
E19S	3.05
E19T	2.71
E19V	2.67
E19W	1.9
E19Y	2.54
K20A	2.85
K20C	2.9
K20D	3.35
K20E	3.64
K20F	2.6
K20G	3.51
K20H	2.95
K20I	2.58
K20L	2.88
K20M	3.03
K20N	3.24
K20P	2.91
K20Q	3.66
K20R	3.38
K20S	3.2
K20T	2.89
K20V	3.29
K20W	2.33
K20Y	2.71
T21A	2.84

Variant	protein stability index
T21C	3.39
T21D	3.25
T21E	3.31
T21F	2.64
T21G	2.91
T21H	2.86
T21I	3.29
T21K	2.94
T21L	2.76
T21M	2.63
T21N	2.95
T21P	3.32
T21Q	3.21
T21R	2.83
T21S	3.03
T21V	2.99
T21W	2.44
T21Y	2.74
Q22A	3.29
Q22C	2.79
Q22D	3.35
Q22E	3.42
Q22F	2.56
Q22G	3.18
Q22H	2.99

Variant	protein stability index
Q22I	2.49
Q22K	2.89
Q22L	2.57
Q22M	3.01
Q22N	3.19
Q22P	3
Q22R	2.95
Q22S	2.97
Q22T	3.42
Q22V	3.44
Q22W	2.05
Q22Y	2.58
K23A	3.34
K23C	3.09
K23D	3.95
K23E	3.8
K23F	2.85
K23G	3.65
K23H	3.24
K23I	2.93
K23L	2.94
K23M	3.19
K23N	3.05
K23P	3.11
K23Q	3.27

Variant	protein stability index
K23R	3.16
K23S	3.38
K23T	3.31
K23V	3.6
K23W	2.7
K23Y	2.91
N24A	2.9
N24C	2.73
N24D	3.68
N24E	3.12
N24F	2.47
N24G	2.61
N24H	2.99
N24I	2.48
N24K	2.79
N24L	2.81
N24M	3.4
N24P	3.87
N24Q	3.43
N24R	3.22
N24S	2.91
N24T	3.47
N24V	3.02
N24W	2.47
N24Y	2.44

Variants of: B2
Assay: as above
Details: c terminus: a fixed tail appended

Variant	protein stability index
Y1A	3.35
Y1C	2.95
Y1D	3.82
Y1E	3.8
Y1F	2.03
Y1G	3.26
Y1H	3.18
Y1I	2.77
Y1K	3.38
Y1L	2.66
Y1M	2.97
Y1N	3.52
Y1P	3.33
Y1Q	3.43
Y1R	3.04
Y1S	3.36
Y1T	3.22
Y1V	3.31
Y1W	2.69
P2A	1.85
P2C	1.62

Variant	protein stability index
P2D	3.19
P2E	3.33
P2F	1.77
P2G	1.8
P2H	2.04
P2I	1.83
P2K	2.87
P2L	2.29
P2M	2.48
P2N	2.47
P2Q	2.51
P2R	2.57
P2S	2.43
P2T	1.77
P2V	2.62
P2W	1.45
P2Y	1.91
E3A	1.78
E3C	2.35
E3D	2.24
E3F	2.11

Variant	protein stability index
E3G	1.82
E3H	1.81
E3I	2.12
E3K	1.8
E3L	1.9
E3M	2.14
E3N	2.39
E3P	2.09
E3Q	2.5
E3R	1.64
E3S	2
E3T	2.02
E3V	1.76
E3W	2.01
E3Y	2.03
Q4A	3.18
Q4C	1.8
Q4D	2.71
Q4E	3.03
Q4F	3.4
Q4G	1.89

Variant	protein stability index
Q4H	2.29
Q4I	1.85
Q4K	1.77
Q4L	1.81
Q4M	1.39
Q4N	1.89
Q4P	2.16
Q4R	1.79
Q4S	1.99
Q4T	1.8
Q4V	2.43
Q4W	3.72
Q4Y	2.56
S5A	2.17
S5C	1.96
S5D	2.74
S5E	2.69
S5F	2.3
S5G	2.52
S5H	2.1
S5I	2.2
